Laboratory results from patent US10464978B2, “Peptides and combination of peptides for use in immunotherapy against ovarian cancer and other cancers” (immatics biotechnologies GmbH, priority 2015, dated 2019).

target: HLA-A*02:01 (Homo sapiens, UniProt P04439, D140Y/D185E/D98H/E176V/E277Q/G131W/G231S/I119V/I121R/I166T/I218V/L300P/L318F/N151K/N90K/P208A/P217A/Q86G/Q94H/R138H/R169H/T345S); assay: MHC binding assay: UV-ligand exchange with beta2m ELISA (peptide exchange yield); conditions: binding to HLA-A*02:01
From the text: Candidate peptides for T cell based therapies according to the present invention were further tested for their MHC binding capacity (affinity). The individual peptide-MHC complexes were produced by UV-ligand exchange, where a UV-sensitive peptide is cleaved upon UV-irradiation, and exchanged with the peptide of interest as analyzed. Only peptide candidates that can effectively bind and stabilize the peptide-receptive MHC molecules prevent dissociation of the MHC complexes. To determine the yield of the exchange reaction, an ELISA was performed based on the detection of the light chain ([…]) of stabilized MHC complexes. The assay was performed as generally described in Rodenko et al. (Rodenko et al., 2006).
96 well MAXISorp plates (NUNC) were coated over night with 2 ug/ml streptavidin in PBS at room temperature, washed 4× and blocked for 1 h at 37° C. in 2% BSA containing blocking buffer. […] Peptide-MHC monomers of the UV-exchange reaction were diluted 100 fold in blocking buffer. Samples were incubated for 1h at 37° C., washed four times, incubated with 2 ug/ml HRP conjugated anti-β2m for 1h at 37° C., washed again and detected with TMB solution that is stopped with […]. Absorption was measured at 450 nm. Candidate peptides that show a high exchange yield (preferably higher than 50%, most preferred higher than 75%) are generally preferred for a generation and production of antibodies or fragments thereof, and/or T cell receptors or fragments thereof, as they show sufficient avidity to the MHC molecules and prevent dissociation of the MHC complexes.

Substance	Peptide exchange (MHC class I binding score, peptide exchange yield)
67 (TLLAEALVTV; listed as Homo sapiens) [compound 67]	“+++” (≥50 = +++)
68 (SLMELPRGLFL; listed as Homo sapiens) [compound 68]	“++++” (≥75% = ++++)
69 (FQLDPSSGVLVTV; listed as Homo sapiens) [compound 69]	“+++” (≥50 = +++)
70 (GLLDYPVGV; listed as Homo sapiens) [compound 70]	“+++” (≥50 = +++)
71 (GILARIASV; listed as Homo sapiens) [compound 71]	“+++” (≥50 = +++)
72 (SLLELDGINL; listed as Homo sapiens) [compound 72]	“+++” (≥50 = +++)
73 (NIFDLQIYV; listed as Homo sapiens) [compound 73]	“+++” (≥50 = +++)
74 (ALLDPEVLSIFV; listed as Homo sapiens) [compound 74]	“+++” (≥50 = +++)
75 (GLLEVMVNL; listed as Homo sapiens) [compound 75]	“+++” (≥50 = +++)
76 (ILIDSIYKV; listed as Homo sapiens) [compound 76]	“+++” (≥50 = +++)
77 (ILVEADGAWVV; listed as Homo sapiens) [compound 77]	“++++” (≥75% = ++++)
78 (SLFSSLEPQIQPV; listed as Homo sapiens) [compound 78]	“+++” (≥50 = +++)
79 (SLFIGEKAVLL; listed as Homo sapiens) [compound 79]	“+++” (≥50 = +++)
80 (FLYDNLVESL; listed as Homo sapiens) [compound 80]	“++” (≥20% = ++)
81 (FLFSQLQYL; listed as Homo sapiens) [compound 81]	“++” (≥20% = ++)
82 (FLSSVTYNL; listed as Homo sapiens) [compound 82]	“+++” (≥50 = +++)
83 (ILAPTVMMI; listed as Homo sapiens) [compound 83]	“+++” (≥50 = +++)
84 (VTFGEKLLGV; listed as Homo sapiens) [compound 84]	“++” (≥20% = ++)
85 (KMSELRVTL; listed as Homo sapiens) [compound 85]	“+++” (≥50 = +++)
86 (NLIGKIENV; listed as Homo sapiens) [compound 86]	“+++” (≥50 = +++)
87 (ALPEAPAPLLPHIT; listed as Homo sapiens) [compound 87]	“++” (≥20% = ++)

Substance	Peptide exchange (MHC class I binding score, peptide exchange yield)
88 (FLLVGDLMAV; listed as Homo sapiens) [compound 88]	“+++” (≥50 = +++)
89 (YILPTETIYV; listed as Homo sapiens) [compound 89]	“++++” (≥75% = ++++)
90 (TLLQIIETV; listed as Homo sapiens) [compound 90]	“+++” (≥50 = +++)
91 (IMQDFPAEIFL; listed as Homo sapiens) [compound 91]	“++++” (≥75% = ++++)
92 (YLIPFTGIVGL; listed as Homo sapiens) [compound 92]	“++” (≥20% = ++)
93 (LLQAIKLYL; listed as Homo sapiens) [compound 93]	“++” (≥20% = ++)
94 (YLIDIKTIAI; listed as Homo sapiens) [compound 94]	“++” (≥20% = ++)
95 (SVIPQIQKV; listed as Homo sapiens) [compound 95]	“+++” (≥50 = +++)
96 (YIFTDNPAAV; listed as Homo sapiens) [compound 96]	“+++” (≥50 = +++)
97 (SLINGSFLV; listed as Homo sapiens) [compound 97]	“+++” (≥50 = +++)
98 (LIIDQADIYL; listed as Homo sapiens) [compound 98]	“+++” (≥50 = +++)
99 (ALVSKGLATV; listed as Homo sapiens) [compound 99]	“++” (≥20% = ++)
100 (YLLSTNAQL; listed as Homo sapiens) [compound 100]	“++++” (≥75% = ++++)
101 (ILVGGGALATV; listed as Homo sapiens) [compound 101]	“+++” (≥50 = +++)
102 (YLFESEGLVL; listed as Homo sapiens) [compound 102]	“+++” (≥50 = +++)
103 (TLAEEVVAL; listed as Homo sapiens) [compound 103]	“+++” (≥50 = +++)
104 (STMEQNFLL; listed as Homo sapiens) [compound 104]	“++++” (≥75% = ++++)
106 (LLYDAVHIVSV; listed as Homo sapiens) [compound 106]	“+++” (≥50 = +++)
107 (FLQPVDDTQHL; listed as Homo sapiens) [compound 107]	“+++” (≥50 = +++)
108 (ALFPGVALLLA; listed as Homo sapiens) [compound 108]	“++++” (≥75% = ++++)
109 (IILSILEQA; listed as Homo sapiens) [compound 109]	“++++” (≥75% = ++++)

Substance	Peptide exchange (MHC class I binding score, peptide exchange yield)
110 (FLSQVDFEL; listed as Homo sapiens) [compound 110]	“+++” (≥50 = +++)
111 (YVWGFYPAEV; listed as Homo sapiens) [compound 111]	“+++” (≥50 = +++)
113 (GLLPTPLFGV; listed as Homo sapiens) [compound 113]	“+++” (≥50 = +++)
114 (SLVGEPILQNV; listed as Homo sapiens) [compound 114]	“++” (≥20% = ++)
115 (AIAGAGILYGV; listed as Homo sapiens) [compound 115]	“++” (≥20% = ++)
116 (YHIDEEVGF; listed as Homo sapiens) [compound 116]	“+” (≥10% = +)
117 (ILPDGEDFLAV; listed as Homo sapiens) [compound 117]	“+++” (≥50 = +++)
118 (KLIDNNINV; listed as Homo sapiens) [compound 118]	“+++” (≥50 = +++)
119 (FLYIGDIVSL; listed as Homo sapiens) [compound 119]	“++++” (≥75% = ++++)
120 (ALLGIPLTLV; listed as Homo sapiens) [compound 120]	“+++” (≥50 = +++)
121 (GVVDPRAISVL; listed as Homo sapiens) [compound 121]	“++” (≥20% = ++)
122 (FLLAEDDIYL; listed as Homo sapiens) [compound 122]	“+++” (≥50 = +++)
123 (NLWDLTDASVV; listed as Homo sapiens) [compound 123]	“+++” (≥50 = +++)
124 (ALYETELADA; listed as Homo sapiens) [compound 124]	“++” (≥20% = ++)
125 (VQIHQVAQV; listed as Homo sapiens) [compound 125]	“+++” (≥50 = +++)
126 (VLAYFLPEA; listed as Homo sapiens) [compound 126]	“++++” (≥75% = ++++)
127 (KIGDEPPKV; listed as Homo sapiens) [compound 127]	“++” (≥20% = ++)
128 (YLFDDPLSAV; listed as Homo sapiens) [compound 128]	“++” (≥20% = ++)
129 (GLLDGGVDILL; listed as Homo sapiens) [compound 129]	“+++” (≥50 = +++)
130 (FLWNGEDSALL; listed as Homo sapiens) [compound 130]	“+++” (≥50 = +++)
